Literature values as cited in PMC7395068, “The evolution of strategies to minimise the risk of human drug-induced liver injury (DILI) in drug discovery and development” (Archives of Toxicology, 2020).

B1: tenecteplase (protein, UniProt P00750 36-562, looked up, variant T103N N117Q K296A H297A R298A R299A)
Tissue-type plasminogen …: SYQVICRDEKTQMIYQQHQSWLRPVLRSNRVEYCWCNSGRAQCHSVPVKSCSEPRCFNGGTCQQALYFSDFVCQCPEGFAGKCCEIDTRATCYEDQGISYRGNWSTAESGAECTNWQSSALAQKPYSGRRPDAIRLGLGNHNYCRNPDRDSKPWCYVFKAGKYSSEFCSTPACSEGNSDCYFGNGSAYRGTHSLTESGASCLPWNSMILIGKVYTAQNPSAQALGLGKHNYCRNPDGDAKPWCHVLKNRRLTWEYCDVPSCSTCGLRQYSQPQFRIKGGLFADIASHPWQAAIFAAAAASPGERFLCGGILISSCWILSAAHCFQERFPPHHLTVILGRTYRVVPGEEEQKFEVEKYIVHKEFDDDTYDNDIALLQLKSDSSRCAQESSVVRTVCLPPADLQLPDWTECELSGYGKHEALSPFYSERLKEAHVRLYPSSRCTSQHLLNRTVTDNMLCAGDTRSGGPQANLHDACQGDSGGPLVCLNDGRMTLVGIISWGLGCGQKDVPGVYTKVTNYLDWIRDNMRP
B2: interferon gamma-1b (protein, UniProt P01579 24-161, looked up)
Interferon gamma: QDPYVKEAENLKKYFNAGHSDVADNGTLFLGILKNWKEESDRKIMQSQIVSFYFKLFKNFKDDQSIQKSVETIKEDMNVKFFNSNKKKRDDFEKLTNYSVTDLNVQRKAIHELIQVMAELSPAAKTGKRKRSQMLFRG
B3: rasburicase (protein, UniProt Q00511 2-302, looked up)
Uricase: SAVKAARYGKDNVRVYKVHKDEKTGVQTVYEMTVCVLLEGEIETSYTKADNSVIVATDSIKNTIYITAKQNPVTPPELFGSILGTHFIEKYNHIHAAHVNIVCHRWTRMDIDGKPHPHSFIRDSEEKRNVQVDVVEGKGIDIKSSLSGLTVLKSTNSQFWGFLRDEYTTLKETWDRILSTDVDATWQWKNFSGLQEVRSHVPKFDATWATAREVTLKTFAEDNSASVQATMYKMAEQILARQQLIETVEYSLPNKHYFEIDLSWHKGLQNTGKNAEVFAPQSDPNGLIKCTVGRSSLKSKL
B4: imiglucerase (protein, UniProt P04062 40-536, looked up, variant R495H)
Lysosomal acid …: ARPCIPKSFGYSSVVCVCNATYCDSFDPPTFPALGTFSRYESTRSGRRMELSMGPIQANHTGTGLLLTLQPEQKFQKVKGFGGAMTDAAALNILALSPPAQNLLLKSYFSEEGIGYNIIRVPMASCDFSIRTYTYADTPDDFQLHNFSLPEEDTKLKIPLIHRALQLAQRPVSLLASPWTSPTWLKTNGAVNGKGSLKGQPGDIYHQTWARYFVKFLDAYAEHKLQFWAVTAENEPSAGLLSGYPFQCLGFTPEHQRDFIARDLGPTLANSTHHNVRLLMLDDQRLLLPHWAKVVLTDPEAAKYVHGIAVHWYLDFLAPAKATLGETHRLFPNTMLFASEACVGSKFWEQSVRLGSWDRGMQYSHSIITNLLYHVVGWTDWNLALNPEGGPNWVRNFVDSPIIVDITKDTFYKQPMFYHLGHFSKFIPEGSQRVGLVASQKNDLDAVALMHPDGSAVVVVLNRSSKDVPLTIKDPAVGFLETISPGYSIHTYLWHRQ
B5: idursulfase (protein, UniProt P22304 34-455; P22304 456-550, looked up)
Iduronate 2-sulfatase 42 kDa …: TDALNVLLIIVDDLRPSLGCYGDKLVRSPNIDQLASHSLLFQNAFAQQAVCAPSRVSFLTGRRPDTTRLYDFNSYWRVHAGNFSTIPQYFKENGYVTMSVGKVFHPGISSNHTDDSPYSWSFPPYHPSSEKYENTKTCRGPDGELHANLLCPVDVLDVPEGTLPDKQSTEQAIQLLEKMKTSASPFFLAVGYHKPHIPFRYPKEFQKLYPLENITLAPDPEVPDGLPPVAYNPWMDIRQREDVQALNISVPYGPIPVDFQRKIRQSYFASVSYLDTQVGRLLSALDDLQLANSTIIAFTSDHGWALGEHGEWAKYSNFDVATHVPLIFYVPGRTASLPEAGEKLFPYLDPFDSASQLMEPGRQSMDLVELVSLFPTLAGLAGLQVPPRCPVPSFHVELCREGKNLLKHFRFRDLEEDPYLPG
Iduronate 2-sulfatase 14 kDa …: NPRELIAYSQYPRPSDIPQWNSDKPSLKDIKIMGYSIRTIDYRYTVWVGFNPDEFLANFSDIHAGELYFVDSDPLQDHNMYNDSQGGDLFQLLMP
B6: pegvisomant (protein, UniProt P01241 27-217, looked up, variant H18D H21N Q22N F25S K41I Y42H L45W Q46W G120K R167N D171S E174S I179T)
Somatotropin: FPTIPLSRLFDNAMLRADRLNNLASDTYQEFEEAYIPKEQIHSFWWNPQTSLCFSESIPTPSNREETQQKSNLELLRISLLLIQSWLEPVQFLRSVFANSLVYGASDSNVYDLLKDLEEKIQTLMGRLEDGSPRTGQIFKQTYSKFDTNSHNDDALLKNYGLLYCFNKDMSKVSTFLRTVQCRSVEGSCGF
modifications: PEGylated
B7: pegademase bovine (protein, UniProt P56658 2-363, looked up)
Adenosine deaminase: AQTPAFNKPKVELHVHLDGAIKPETILYYGRKRGIALPADTPEELQNIIGMDKPLSLPEFLAKFDYYMPAIAGCREAVKRIAYEFVEMKAKDGVVYVEVRYSPHLLANSKVEPIPWNQAEGDLTPDEVVSLVNQGLQEGERDFGVKVRSILCCMRHQPSWSSEVVELCKKYREQTVVAIDLAGDETIEGSSLFPGHVKAYAEAVKSGVHRTVHAGEVGSANVVKEAVDTLKTERLGHGYHTLEDATLYNRLRQENMHFEVCPWSSYLTGAWKPDTEHPVVRFKNDQVNYSLNTDDPLIFKSTLDTDYQMTKNEMGFTEEEFKRLNINAAKSSFLPEDEKKELLDLLYKAYGMPSPASAEQCL
modifications: PEG conjugate
B8: pegfilgrastim (protein, UniProt P09919 31-207, looked up)
Granulocyte …: TPLGPASSLPQSFLLKCLEQVRKIQGDGAALQEKLVSECATYKLCHPEELVLLGHSLGIPWAPLSSCPSQALQLAGCLSQLHSGLFLYQGLLQALEGISPELGPTLDTLQLDVADFATTIWQQMEELGMAPALQPTQGAMPAFASAFQRRAGGVLVASHLQSFLEVSYRVLRHLAQP
modifications: N-terminal Met; PEG
B9: pegaspargase (protein, UniProt P00805 23-348, looked up)
L-asparaginase 2: LPNITILATGGTIAGGGDSATKSNYTVGKVGVENLVNAVPQLKDIANVKGEQVVNIGSQDMNDNVWLTLAKKINTDCDKTDGFVITHGTDTMEETAYFLDLTVKCDKPVVMVGAMRPSTSMSADGPFNLYNAVVTAADKASANRGVLVVMNDTVLDGRDVTKTNTTDVATFKSVNYGPLGYIHNGKIDYQRTPARKHTSDTPFDVSKLNELPKVGIVYNYANASDLPAKALVDAGYDGIVSAGVGNGNLYKSVFDTLATAAKTGTAVVRSSRVPTGATTQDAEVDDAKYGFVASGTLNPQKARVLLQLALTQTKDPQQIQQIFNQY
modifications: PEG conjugate
B10: laronidase (protein, UniProt P35475 28-653, looked up)
Alpha-L-iduronidase: APHLVHVDAARALWPLRRFWRSTGFCPPLPHSQADQYVLSWDQQLNLAYVGAVPHRGIKQVRTHWLLELVTTRGSTGRGLSYNFTHLDGYLDLLRENQLLPGFELMGSASGHFTDFEDKQQVFEWKDLVSSLARRYIGRYGLAHVSKWNFETWNEPDHHDFDNVSMTMQGFLNYYDACSEGLRAASPALRLGGPGDSFHTPPRSPLSWGLLRHCHDGTNFFTGEAGVRLDYISLHRKGARSSISILEQEKVVAQQIRQLFPKFADTPIYNDEADPLVGWSLPQPWRADVTYAAMVVKVIAQHQNLLLANTTSAFPYALLSNDNAFLSYHPHPFAQRTLTARFQVNNTRPPHVQLLRKPVLTAMGLLALLDEEQLWAEVSQAGTVLDSNHTVGVLASAHRPQGPADAWRAAVLIYASDDTRAHPNRSVAVTLRLRGVPPGPGLVYVTRYLDNGLCSPDGEWRRLGRPVFPTAEQFRRMRAAEDPVAAAPRPLPAGGRLTLRPALRLPSLLLVHVCARPEKPPGQVTRLRALPLTQGQLVLVWSDEHVGSKCLWTYEIQFSQDGKAYTPVSRKPSTFNLFVFSPDTGAVSGSYRVRALDYWARPGPFSDPVPYLEVPVPRGPPSPGNP

Details: in vivo

| Molecule | DILI +VE (5-8), DILI -VE (-4) | DILI severity category |
| --- | --- | --- |
| B1 | -VE | vNo-DILI-Concern |
| B2 | -VE | Ambiguous DILI-concern |
| B3 | -VE | vNo-DILI-Concern |
| B4 | -VE | vNo-DILI-Concern |
| B5 | -VE | vNo-DILI-Concern |
| B6 | -VE | Ambiguous DILI-concern |
| B7 | -VE | vNo-DILI-Concern |
| B8 | -VE | vNo-DILI-Concern |
| B9 | +VE | vLess-DILI-Concern |
| B10 | -VE | Ambiguous DILI-concern |
